{"source": "patent US7414113B2", "about": "“Antibody that specifically binds to Candida kefyr Cytosine deaminase” (Onyx Pharmaceuticals, Inc., priority 2002, dated 2008)", "molecules": {"B1": {"name": "E-CD-FLAG: E. coli cytosine deaminase with FLAG tag (protein, UniProt P25524 2-427, looked up)", "Cytosine deaminase": "SNNALQTIINARLPGEEGLWQIHLQDGKISAIDAQSGVMPITENSLDAEQGLVIPPFVEPHIHLDTTQTAGQPNWNQSGTLFEGIERWAERKALLTHDDVKQRAWQTLKWQIANGIQHVRTHVDVSDATLTALKAMLEVKQEVAPWIDLQIVAFPQEGILSYPNGEALLEEALRLGADVVGAIPHFEFTREYGVESLHKTFALAQKYDRLIDVHCDEIDDEQSRFVETVAALAHHEGMGARVTASHTTAMHSYNGAYTSRLFRLLKMSGINFVANPLVNIHLQGRFDTYPKRRGITRVKEMLESGINVCFGHDDVFDPWYPLGTANMLQVLHMGLHVCQLMGYGQINDGLNLITHHSARTLNLQDYGIAAGNSANLIILPAENGFDALRRQVPVRYSVRGGKVIASTQPAQTTVYLEQPEAIDYKR", "modifications": "FLAG tag"}, "B2": {"name": "E-CD: E. coli (bacterial) cytosine deaminase, 427 amino acids (protein, UniProt P25524 2-427, looked up)", "Cytosine deaminase": "B1 Cytosine deaminase"}, "B3": {"name": "S. cerevisiae FCY1: Wild type Saccharomyces cerevisiae CD protein, 158 amino acids (protein)", "chain": "MVTGGMASKWDQKGMDIAYEEAALGYKEGGVPIGGCLINNKDGSVLGRGHNMRFQKGSATLHGEISTLENCGRLEGKVYKDTTLYTTLSPCDMCTGAIIMYGIPRCVVGENVNFKSKGEKYLQTRGHEVVVVDDERCKKIMKQFIDERPQDWFEDIGE"}, "B4": {"name": "CK-CD: Wild type Candida kefyr cytosine deaminase protein, 152 amino acids, SEQ ID NO: 2 (protein)", "chain": "MAEWDQKGMDKAYEEAAIGYKEGGVPIGGCLIDNLTGEILGSGHNMRFQKGSPTLHGETSTLENAGRLKGSVYKHCTMYTTLSPCDMCTGAILLYGIGRVVIGENVNFKSPGEEYLTSRGVELKVVDDKRCIDIMKEFIEKRPEDWYEDIGE"}, "B5": {"name": "CK-CD-FLAG: Candida kefyr CD with FLAG tag, with the D33E variation (protein)", "chain": "B4 chain with D33E", "modifications": "C-terminal FLAG tag", "notes": "Candida kefyr CD with FLAG tag, with the D33E variation"}, "B6": {"name": "CD-FUR1 fusion protein: Fusion of Candida kefyr CD and uracil phosphoribosyltransferase (FUR1) (protein)", "chain": "MAEWDQKGMDKAYEEAAIGYKEGGVPIGGCLIDNLTGEILGSGHNMRFQKGSPTLHGETSTLENAGRLKGSVYKHCTMYTTLSPCDMCTGAILLYGIGRVVIGENVNFKSPGEEYLTSRGVELKVVDDKRCIDIMKEFIEKRPEDWYEDIGEASEPFKNVYLLPQTNQLLGLYTIIRNKNTTRPDFIFYSDRIIRLLVEEGLNHLPVQKQIVETDTNENFEGVSFMGKICGVSIVRAGESMEQGLRDCCRSVRIGKILIQRDEETALPKLFYEKLPEDISERYVFLLDPMLATGGSAIMATEVLIKRGVKPERIYFLNLICSKEGIEKYHAAFPEVRIVTGALDRGLDENKYLVPGLGDFGDRYYCV"}}, "key": {"HEK 293 cells": {"system": "HEK 293 cells", "assay": "Expression of CD constructs, anti-FLAG Western blot of cell lysate", "type": "cell-based, Human", "details": "transiently transfected HEK 293 cells", "text": "Human embryonic kidney cells (HEK 293 cells) were transiently transfected with one of these constructs: CK-CD-FLAG, CK-CD, E-CD-FLAG, E-CD or vector alone (pCMV-tag4C). […] Cells co-transfected with a construct and a GFP containing plasmid indicated approximately equivalent levels of transfection.\nThe experimental details are as follows: 293 cells in 10 cm dishes were transfected with 10 or 15 ÿg of CD constructs using FuGene® 6 (ROCHE™) at a DNA/FuGene® ratio of 1:3. No carrier DNA was used. Cell lysates were collected in 1 ml of lysis buffer (20 mM Tris-Cl, pH8, 150 mM NaCl, 1% Triton X-100) after 48 hours by three freeze/thaw cycles using dry ice for 10 minutes and room temperature for 10 minutes.\n30 μl of cell lysate was separated by 12% SDS-PAGE, transferred to membrane and then Western blotted with anti-flag monoclonal antibody at a dilution of 1:5000 (SIGMA™). The membranes were incubated with HRP conjugated goat-anti-mouse secondary antibody (1:10000, AMERSHAM™) and the signal visualized with an ECL system (AMERSHAM™). […] Similar results were obtained (not shown) when the cells were transfected with 2 μg of each DNA construct. Experiments are planned to test a humanized C. kefyr gene and it is expected that the humanized gene will improve the expression levels.\nBecause the bacterial protein was more strongly expressed than the yeast protein, an attempt was made to compare the levels for the amount of expression of the two clones. In a second Western blot, 30 μl of CK-CD-FLAG was compared against increasing amounts of E-CD-FLAG. […] In the following experiments, this ratio of cell lysates is used. The presence of a fainter band at about 38 KD may indicate that some portion of the CK-CD protein dimerizes."}, "[1]": {"assay": "5FC to 5FU conversion assay at different temperatures (14C, TLC)", "type": "biochemical", "details": "for 5FC to 5FU conversion activity: cell lysate, 2 hour assay, FIG. 10", "procedure": "(§1) The plate was then dried and visualized by autoradiography.\nIn the next experiment, we tested the activity of each enzyme against 5FC. The experiment was performed as described above, but using 5FC in place of cytosine. Further, this experiment was combined with a temperature optimization study and was performed at 4 different temperatures. […] Further, a variant with increased stability can be isolated by screening yeast grown at 37° C., as described in the Examples below."}, "[2]": {"details": "reference 16, cited from earlier work"}, "[3]": {"details": "cited from earlier work"}, "[4]": {"details": "cell lysate, 37° C., 16 hour assay, FIG. 9; listed as C. kefyr CD protein", "description": "The reaction mixtures were loaded onto a TLC plate (LK5DF SILICA GEL, Cat. No. 4856-821, WHATMAN™) and resolved with 1-butanol:H2O (85:15) for 3 hours. The plate was then dried and visualized by autoradiography.\nCell lysates were assayed for cytosine to uracil conversion at 37° C. in a 16 hour assay."}, "[5]": {"assay": "Activity of CD variants (conversion of 5FC to 5FU)", "type": "biochemical", "details": "mutant tested, versus protein of SEQ ID NO: 2", "text": "“Fragments” refers to those polypeptides (or nucleic acid sequences encoding such polypeptides) retaining antigenicity, a structural domain, or an enzymatic activity of the full-length protein. The “enzymatic activity” of the CD protein is herein defined to be the conversion of 5FC to 5FU.\nas §1\nThe specific variants listed in table 2 are synthesized by site specific mutagenesis of SEQ ID NO: 1 or SEQ ID NO: 3. […] Further, changes within the cytidine and deoxycytidylate deaminase zinc-binding region (grey box) are also expected to be less well tolerated than changes outside this region. These residues involve a change in charge as compared with the closest homolog and are in the binding region. Changes in these residues are expected to change function. Active variants are likely to be those that involve conservative changes in those residues not conserved in the 2 yeasts, particularly those outside the binding region.\nVariants are expressed in E. coli and screened for activity using the assay described in example 3, or any suitable assay. Alternatively, random mutagenesis is performed and the products are similarly screened. In this manner, it will be possible to isolate variants with improved temperature stability at 37° C. and mutants with even better activity than that described herein."}}, "note": "Substitutions are numbered along the chain they refer to. Numbers in names are those of the source. Entries after “also recorded” stand apart in the source; their conditions may differ."}
{"molecule": "B1", "values": [{"measurement": "expression level", "setting": "HEK 293 cells", "value": "much more strongly expressed than the yeast protein"}, {"measurement": "expression level", "setting": "HEK 293 cells; listed as E. coli CD-FLAG", "value": "expressed much more efficiently than Candida kefyr CD-FLAG"}]}
{"molecule": "B2", "values": [{"measurement": "5FU produced", "setting": "[1]; 16 hours of reaction (not shown)", "value": "as much or more 5FU than the yeast protein"}, {"measurement": "Activity % 5FU/5FC by 0.2 μg CD in 2 h", "setting": "[2]", "value": "^1616.0 ± 0.8%"}, {"measurement": "Km", "setting": "[2]", "value": 17.9, "unit": "mM"}, {"measurement": "Vmax", "setting": "[2]", "value": "^1611.7 ± 3.8 μM/min/μg enzyme"}]}
{"molecule": "B3", "values": [{"measurement": "Activity % 5FU/5FC by 0.2 μg CD in 2 h", "setting": "[2]", "value": "^1677.9 ± 6.2%"}, {"measurement": "Km", "setting": "[2]", "value": 0.8, "unit": "mM"}, {"measurement": "Vmax", "setting": "[2]", "value": "^1668.0 ± 12.0 μM/min/μg enzyme"}, {"measurement": "T½", "setting": "[3]; measured, reference 16 (value in brackets)", "value": "(^161) HR"}, {"measurement": "measured T1/2", "setting": "[3]; thermal instability, reference 16", "value": 1, "unit": "h"}]}
{"molecule": "B4", "values": [{"measurement": "cytosine to uracil conversion activity", "setting": "[4]", "value": "far less active against cytosine than was the E. coli CD protein"}, {"measurement": "expression level", "setting": "HEK 293 cells", "value": "significantly lower expression levels than E. coli CD"}, {"measurement": "substrate preference, 5FC versus cytosine", "setting": "[1]", "value": "5FC is a better substrate for C. kefyr CD than is the natural substrate, cytosine"}, {"measurement": "Activity % 5FU/5FC", "setting": "[1]; by 45 ul cell extract, 2 h", "value": "~50", "unit": "% by 45 ul"}, {"measurement": "5FC to 5FU conversion activity", "setting": "[1]", "value": "much more active than CK-CD-FLAG; also recorded: more active against 5FC than the bacterial protein; also recorded: more active against 5FC than is the E. coli CD at 2 hours"}, {"measurement": "5FC to 5FU conversion activity", "setting": "[1]; listed as C. kefyr CD", "value": "much higher in converting 5FC to 5FU"}, {"measurement": "5FC to 5FU conversion activity", "setting": "[1]; listed as C. kefyr protein", "value": "sufficiently active at 37 °C"}, {"measurement": "increased cytotoxicity and bystander effect per unit dose of 5FC compared with the bacteria", "setting": "transfected cells", "value": "up to 10 fold"}]}
{"molecule": "B5", "values": [{"measurement": "expression level", "setting": "HEK 293 cells", "value": "about ten-fold less well expressed than the E-CD-FLAG"}, {"measurement": "Activity", "setting": "[5]", "value": "Mutant tested and has less activity"}, {"measurement": "5FC to 5FU conversion activity", "setting": "[1]", "value": "more active against 5FC than the bacterial protein"}]}
{"molecule": "B6", "values": [{"measurement": "expected activity in cytotoxicity assay", "setting": "transfected cells", "value": "increased activity"}]}
